Test results from patent publication US7527943B2, “Compositions of orthogonal glutamyl-tRNA and aminoacyl-tRNA synthetase pairs and uses thereof” (The Scripps Research Institute, priority 2003, dated 2009).

B1: MmERS: glutamyl-tRNA synthetase from M. mazei (protein, listed as Methanosarcina mazeii)
chain: MTLSPEDIKIIEKYALQNAVKYGKAPQPKAVMGKVMGECPQLRADPSGVSAALENIVSEIAKGNPEAWEARLSEIAPELIEALSVKKEPDKGLKPLEGAETGKVVMRFAPNPNGPATLGSSRGMVVNSEYVKVYKGKFILRFDDTDPDIKRPMLEAYDWYMDDFKWLGVVPDQVVRASDRFPIYYDYARKLIEMGKAYVCFCKGEDFKRLKDSKKACPHRDTDPEENLMHWEKMLAGEYEDQQAVLRIKTDIEHKDPALRDWGAFRIRKMSHPRPEIGNKYIVWPLLDFAGAIEDHELGMTHIIRGKDLIDSEKRQTYIYKYFGWTYPKTTHWGRVKIHEFGKFSTSTLRKAIESGEYSGWDDPRLPTIRAIRRRGIRAEALKKFMIEMGVGMTDVSISMESLYAENRKIVDPVANRYFFVWNPVELEIEGMKPVVAKVPRHPTDHARGMREISIENKVLVCAEDIEKLNVGSVLRLKDLCNVEITSLSPLRVKRSETSLEDLKKAKGKIIHWVPVDGIPVKVCGPEGDIEGTGERGIETELDNIVQFERFGFCRIDAVDGENVVAYFAHK
B2: MtERS: glutamyl-tRNA synthetase from M. thermoautotrophicum (protein, listed as Methanobacterium thermoautotrophicum)
chain: VVPVEDLVYRYALLNAVKHRGRANPGAVMGAVMSNEPELRKMAPQVKEAVEAAVERVNSLSPEEQQQEMERLGLEITERKQKKRKGLRELAGVKGEVVLRFAPNPSGPLHIGHARAAILNHEYARKYDGRLILRIEDTDPRRVDPEAYDMIPADLEWLGVEWDETVIQSDRMETYYEYTEKLIERGGAYVCTCRPEEFRELKNRGEACHCRSLGFRENLQRWREMFEMKEGSAVVRVKTDLNHPNPAIRDWVSMRIVEAEHPRTGTRYRVYPMMNFSVAVDDHLLGVTHVLRGKDHLANREKQEYLYRHLGWEPPEFIHYGRLKMDDVALSTSGAREGILRGEYSGWDDPRLGTLRAIARRGIRPEAIRKLMVEIGVKIADSTMSWKKIYGLNRSILEEEARRYFFAADPVKLEVVGLPGPVRVERPLHPDHPEIGNRVLELRGEVYLPGDDLGEGPLRLIDAVNVIYSGGELRYHSEGIEEARELGASMIHWVPAESALEAEVIMPDASRVRGVIEADASELEVDDVVQLERFGFARLDSAGPGMVFYYAHK
B3: AE(GC): archaeal glutamyl consensus-derived amber suppressor tRNA, GC base pair at position 10-28 (nucleic acid)
chain: GCCCCGGUGGUGUAGCCCGGCCAAGCACGCGGGCCUCUAAAGCCCGCGACCCGGGUUCAAAUCCCGGCCGGGGCACCA
modifications: chemistry not fully specified
B4: EcERS: E. coli glutamyl-tRNA synthetase, used as a control (protein, UniProt P04805 1-471, looked up)
Glutamate--tRNA ligase: MKIKTRFAPSPTGYLHVGGARTALYSWLFARNHGGEFVLRIEDTDLERSTPEAIEAIMDGMNWLSLEWDEGPYYQTKRFDRYNAVIDQMLEEGTAYKCYCSKERLEALREEQMAKGEKPRYDGRCRHSHEHHADDEPCVVRFANPQEGSVVFDDQIRGPIEFSNQELDDLIIRRTDGSPTYNFCVVVDDWDMEITHVIRGEDHINNTPRQINILKALKAPVPVYAHVSMINGDDGKKLSKRHGAVSVMQYRDDGYLPEALLNYLVRLGWSHGDQEIFTREEMIKYFTLNAVSKSASAFNTDKLLWLNHHYINALPPEYVATHLQWHIEQENIDTRNGPQLADLVKLLGERCKTLKEMAQSCRYFYEDFAEFDADAAKKHLRPVARQPLEVVRDKLAAITDWTAENVHHAIQATADELEVGMGKVGMPLRVAVTGAGQSPALDVTVHAIGKTRSIERINKALDFIAERENQQ
B5: AfERS: glutamyl-tRNA synthetase from A. fulgidus (protein, listed as Archaeoglobus fulgidus)
chain: VKEVIMKYVVQNAAKYGKASEKAVMGKVMAENPELRKKAKEVLELVKECITEFEALSEEVRKELIKKYSMDSEAKRELETKKLPELEGAEKGKVVMRFAPNPNGPPTLGSARGIIVNGEYAKMYEGKYIIRFDDTDPRTKRPMIEAYEWYLEDIEWLGYKPDEVIYASRRIPIYYDYARKLIEMGKAYTCFCSQEEFKKFRDSGEECPHRNISVEDTLEVWERMLEGDYEEGEVVLRIKTDMRHKDPAIRDWVAFRIIKESHPLVGDKYVVYPTLDFESAIEDHLLGITHIIRGKDLIDSERRQRYIYEYFGWIYPITKHWGRVKIFEFGKLSTSSIKKDIERGKYEGWDDPRLPTLRAFRRRGFEPEAIKSFFLSLGVGENDVSVSLKNLYAENRKIIDRKANRYFFIWGPVKIEIVNLPEKKEVELPLNPHTGEKRRLKGERTIYVTKDDFERLKGQVVRLKDFCNVLLDEKAEFMGFELEGVKKGKNIIHWLPESEAIKGKVIGEREAEGLVERNAVRDVGKVVQFERFAFCKVESADEELVAVYTHP
B6: PhERS: glutamyl-tRNA synthetase from P. horikoshii (protein, listed as Pyrococcus horikoshii)
chain: MDVEKIALKHALINAIEHGGKANLKAVIGKVLGENPELRPRAKEIIPIINKVVEEVNSLARDEQLEKLKDIYPEYFEKKEEKKEKKGLPLLPKAEKGKVVTRFAPNPDGAFHLGNARAAILSYEYAKMYGGKFILRFDDTDPKVKRPEPIFYKMIIEDLEWLGIKPDEIVYASDRLEIYYKYAEELIKMGKAYVCTCPPEKFRELRDKGIPCPHRDEPVEVQLERWKKMLNGEYKEGEAVVRIKTDLNHPNPAVRDWPALRIIDNPNHPRTGNKYRVWPLYNFASAIDDHELGVTHIFRGQEHAENETRQRYIYEYFGWEYPVTIHHGRLSIEGVVLSKSKTRKGIEEGKYLGWDDPRLGTIRALRRRGILPEAIKELIIEVGLKKSDATISWENLAAINRKLVDPIANRYFFVADPIPMEVEGAPEFIAEIPLHPDHPERGVRRLKFTPERPVYVSKDDLNLLKPGNFVRLKDLFNVEILEVGDKIRARFYSFEYEIAKKNRWKMVHWVTEGRPCEVIIPEGDELVVRKGLLEKDAKVQVNEIVQFERFGFVRIDRIEGDKVIAIYAHK

Assays:
[1] = test system: β-lactamase reporter gene containing an amber mutation at the permissive site Ala184; type: cell-based, E. coli; details: for ampicillin IC50 fold greater with AE(GC) tRNA than with AE(GU) tRNA: same synthetase co-expressed
Description: Ampicillin IC50 value measurements: To examine the orthogonality of tRNAs, 10 μL of E. coli DH10B cells (1 cfu/μL) carrying a tRNA-expressing plasmid were plated on a series of LB agar plates containing chloramphenicol and varying concentrations of ampicillin. To measure the IC50 values for cells carrying both tRNA- and synthetase-expressing plasmids, cells were plated on LB agar plates containing chloramphenicol, kanamycin, and varying concentrations of ampicillin. In the initial series, cells were plated on five ampicillin concentrations varying from 0 to 1000 μg/mL and incubated overnight at 37° C. In subsequent series, cells were plated on a narrower ampicillin concentration range surrounding the value initial ampicillin IC50 value estimate. […] Measurements were made in duplicate or triplicate for each cell strain.
Orthogonality of tRNAs: To test the activity and cross-reactivity of the AE(GU), AQ(GU), and AQ(GC) tRNAs, their genes were inserted into plasmid pACKO-A184TAG. E. coli cells were transformed with the resulting plasmids, pAC-AE(GU), pAC-AQ(GU), and pAC-AQ(GC), and the ampicillin IC50 values for the cells were assayed. The tRNA-expressing pAC-based plasmids carry a β-lactamase reporter gene containing an amber mutation at the permissive site Ala184, which serves as a useful reporter for amber codon suppression. Acylation of an amber suppressor tRNA causes the incorporation of the activated amino acid at position 184 of β-lactamase, resulting in suppression of the amber stop codon, production of active full-length β-lactamase and resistance to ampicillin. Because an orthogonal tRNA should not cross-react with endogenous aminoacyl-tRNA synthetases, strains transformed with an orthogonal suppressor tRNA alone should survive only on low concentrations of ampicillin. To assess the orthogonality of designed tRNAs, E. coli transformants were plated on LB agar plates containing varying concentrations of ampicillin (FIG. 2).

[2] = test system: whole tRNA derived from E. coli expressing the AE(GC) tRNA; assay: in vitro aminoacylation assay with whole tRNA from E. coli expressing AE(GC) tRNA; type: biochemical
Description: (§1) In vitro aminoacylation assays: Reactions were carried out as described previously (see, e.g., Hoben, P. and Soll, D. (1985) Glutaminyl-tRNA synthetase of Escherichia coli. Methods Enzymol., 113:55-59). Each 20-μL reaction contained 50 mM Tris-HCl (pH 7.5), 30 mM KCl, 20 mM MgCl2, 0.1 mg/mL BSA, 5 mM glutathione, 2.5 mM ATP, 100 nM 1-[G-^3H]Glutamic acid (Amersham), 750 nM aminoacyl-tRNA synthetase, and 40 μM whole halobacterial tRNA. Reactions were allowed to proceed for 15 minutes at 37° C.
(§2) Orthogonality of archaeal glutamyl-tRNA synthetases in E. coli: The ampicillin IC50 measurements described above provide insights into the orthogonality of consensus-designed tRNAs, but provide no information about the orthogonality of archaeal glutamyl-tRNA synthetases in E. coli. To investigate synthetase orthogonality, the AfERS, MnERS, MtERS, and PhERS genes were inserted into a protein overexpression vector. E. coli glutamyl-tRNA synthetase (EcERS) was inserted into the same vector for use as a control. Synthetases were overexpressed in E. coli, purified to homogeneity, and used in an in vitro aminoacylation assay with whole tRNA prepared from either E. coli or the halophilic archaebacterium Halobacterium sp. NRC-1. […] In these experiments, it is unclear why AfERS and MmERS could not aminoacylate whole halobacterial tRNA in vitro (≦5 pmol/L). […]

whole halobacterial tRNA = assay: in vitro aminoacylation assay with [3H]-glutamic acid, whole halobacterial tRNA; type: biochemical, Halobacterium sp. NRC-1; details: 750 nM synthetase, 15 minutes at 37° C.
Description: as §1
Orthogonality of archaeal glutamyl-tRNA synthetases in E. coli: The ampicillin IC50 measurements described above provide insights into the orthogonality of consensus-designed tRNAs, but provide no information about the orthogonality of archaeal glutamyl-tRNA synthetases in E. coli. To investigate synthetase orthogonality, the AfERS, MnERS, MtERS, and PhERS genes were inserted into a protein overexpression vector. E. coli glutamyl-tRNA synthetase (EcERS) was inserted into the same vector for use as a control. Synthetases were overexpressed in E. coli, purified to homogeneity, and used in an in vitro aminoacylation assay with whole tRNA prepared from either E. coli or the halophilic archaebacterium Halobacterium sp. NRC-1. […] In these experiments, it is unclear why AfERS and MmERS could not aminoacylate whole halobacterial tRNA in vitro (≦5 pmol/L). Without being limited to one theory, it is possible that the enzyme purification and/or assay conditions employed were deleterious to the aminoacylation activity of AfERS and MmERS. Another possibility is that subtle differences in tRNA identity elements might preclude recognition of a given archaeal tRNA^Glu by all archaeal glutamyl-tRNA synthetases. To test the latter, the activity of MmERS was investigated using the in vitro aminoacylation assay with whole tRNA derived from E. coli expressing the AE(GC) tRNA.

whole E. coli tRNA = assay: in vitro aminoacylation assay with [3H]-glutamic acid, whole E. coli tRNA; type: biochemical; details: 750 nM synthetase, 15 minutes at 37° C.
Description: as §1, §2

[3] = synthetase co-expressed with AE(GU) tRNA

Molecule	ampicillin IC50 fold greater with AE(GC) tRNA than with AE(GU) tRNA [1] [fold]	ampicillin IC50 fold higher than cells expressing AE(GU) alone [1, 3] [fold]	aminoacylation of whole archaeal (halobacterial) tRNA with [3H]-glutamic acid (whole halobacterial tRNA) [pmol/L]	further results
B1	4.5	20		ampicillin IC50 fold lower than M. jannaschii-derived tyrosine pair [1, 3]: 4.5 fold; ampicillin IC50 fold lower than M. thermoautotrophicum-derived leucine pair [1, 3]: 10 fold; aminoacylation activity [2]: no activity was observed
B2		6	530	
B3				ampicillin IC50 fold increase relative to cells expressing AE(GU) tRNA alone ([1]; tRNA alone, no synthetase): 4 fold
B4			1.7	aminoacylation of whole E. coli tRNA with [3H]-glutamic acid (whole E. coli tRNA): 14,000 pmol/L
B5		7		
B6	~3.5	12	1100	amber suppression efficiency fold less than that of the tyrosyl-tRNA synthetase ([1]; together with the AE(GC) tRNA in E. coli): ~2 fold
